Values quoted from earlier work in patent publication US11884941B2, “Non-canonical lipoproteins with programmable assembly and architecture and method of making non-canonical lipoproteins” (SYRACUSE UNIVERSITY, priority 2020, dated 2024).
Where two headings read alike, the source gives them in different places.

Legend:
[1] = biological target: T1, yeast NMT (Saccharomyces cerevisiae, UniProt P14743)
T1 sequence (P14743 1-455): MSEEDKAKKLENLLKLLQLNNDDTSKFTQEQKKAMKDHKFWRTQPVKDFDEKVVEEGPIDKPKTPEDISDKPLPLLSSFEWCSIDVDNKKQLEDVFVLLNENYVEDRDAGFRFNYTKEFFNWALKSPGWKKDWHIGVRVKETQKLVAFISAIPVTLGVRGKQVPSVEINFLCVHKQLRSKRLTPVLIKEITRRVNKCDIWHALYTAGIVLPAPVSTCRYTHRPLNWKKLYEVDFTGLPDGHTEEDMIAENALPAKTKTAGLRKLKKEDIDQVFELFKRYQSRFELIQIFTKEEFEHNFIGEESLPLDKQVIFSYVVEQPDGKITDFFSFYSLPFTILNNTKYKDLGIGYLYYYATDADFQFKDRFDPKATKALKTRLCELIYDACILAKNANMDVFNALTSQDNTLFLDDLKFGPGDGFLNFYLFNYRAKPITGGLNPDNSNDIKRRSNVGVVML

[2] = system: Pseudomonas acyl-CoA synthetase; settings: in vitro

For GLYASKLFSNL (substrate for transferase), the Km ([1]; read-out: Km of recognition sequence for yeast NMT) is listed as roughly 0.08 µM.
In the case of `[N-]=[N+]=NCCCCCCCCCCCC(=O)O` [ADA, 12-azidododecanoic acid], the “Vm relative to Vm (M)” value ([1]; transfer to N-terminal glycine in ternary complex) is listed as 1.5 ×Vm (M).
In the case of `CC(C)(COP(=O)(O)OP(=O)(O)OCC1OC(n2cnc3c(N)ncnc32)C(O)C1OP(=O)(O)O)C(O)C(=O)NCCC(=O)NCCSC(=O)CCCCCCCCCCCN=[N+]=[N-]` (stereo not drawn) [ADA-CoA], the “amount of acyl-CoA produced compared to M-CoA” value [2] is given as 1.5-2 times.
In the case of “GARASVLS [octapeptide NMT substrate derived from Pr55gag polypeptide precursor of human immunodeficiency virus I (Devadas et al.)]”, the “fold reduction of peptide affinity toward NMT:ADA-CoA complex compared to natural substrate (M-CoA)” value [1] is given as 7 fold, the Km ([1]; NMT with ADA-CoA bound, read-out: Km for the peptide, NMT:ADA-CoA) is given as 66 µM and the Km ([1]; NMT with Myr-CoA bound, read-out: Km for the peptide, NMT:Myr-CoA complex) is given as 9 µM.
